Earlier results as cited in article PMC9747160.

Biological target: APOBEC3B CTD (Homo sapiens) (UniProt Q9UH17)
Test: BLI

UniProt Q9UH17, sequence (Q9UH17 187-382): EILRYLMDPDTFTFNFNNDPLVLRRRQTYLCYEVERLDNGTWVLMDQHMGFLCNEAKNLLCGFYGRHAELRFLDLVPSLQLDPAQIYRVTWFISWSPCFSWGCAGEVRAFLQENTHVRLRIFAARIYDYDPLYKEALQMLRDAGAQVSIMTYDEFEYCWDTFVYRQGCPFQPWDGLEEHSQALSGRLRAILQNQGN

**Q.** Which Kd does the source give for BORF2 (from UniProt P03190) here?
**A.** The Kd was 1 nM.
